Where two headings read alike, the source gives them in different places.
B1: XBP-1s: vector encoding only the spliced form of murine XBP-1, a protein of 371 aa (protein)
chain: MVVVAAAPSAATAAPKVLLLSGQPASGGRALPLMVPGPRAAGSEASGTPQARKRQRLTHLSPEEKALRRKLKNRVAAQTARDRKKARMSELEQQVVDLEEENHKLQLENQLLREKTHGLVVENQELRTRLGMDTLDPDEVPEVEAKGSGVRLVAGSAESAAGAGPVVTSPEHLPMDSDTVASSDSESDILLGILDKLDPVMFFKCPSPESASLEELPEVYPEGPSSLPASLSLSVGTSSAKLEAINELIRFDHVYTKPLVLEIPSETESQTNVVVKIEEAPLSSSEEDHPEFIVSVKKEPLEDDFIPELGISNLLSSSHCLRPPSCLLDAHSDCGYEGSPSPFSDMSSPLGTDHSWEDTFANELFPQLISV
B2: dn-XBP: dominant negative XBP-1 containing the N-terminal 188 aa, lacking transactivation domain, retaining leucine zipper (protein)
chain: MVVVAAAPSAATAAPKVLLLSGQPASGGRALPLMVPGPRAAGSEASGTPQARKRQRLTHLSPEEKALRRKLKNRVAAQTARDRKKARMSELEQQVVDLEEENHKLQLENQLLREKTHGLVVENQELRTRLGMDTLDPDEVPEVEAKGSGVRLVAGSAESAAGAGPVVTSPEHLPMDSDTVASSDSESD

Experiments:
UPR target genes = test: Genes induced by XBP-1s in MEF-tet-off-XBP-1s cells (gene array, Northern blot); type: cell-based; details: doxycycline removed for three days
Description: XBP-1s expression was induced by culturing the cells for three days in doxycycline free media or by treating with Tm for the indicated time. […] Total RNA was also prepared to measure the expression level of BiP, CHOP, ERdj4, p58^ipk and ATF6α mRNA. (B) Additional XBP-1 dependent target genes identified in gene profiling experiments (Table 2) confirmed by Northern analysis in both XBP-1s MEF-tet-off and XBP-1^−/− MEFs. Ethidium bromide staining of the gels before blotting are shown at the bottom.
293T and MEF cells derived from wild type and XBP-1^−/− embryos were cultured in DMEM supplemented with 10% fetal calf serum (Hyclone Laboratories). MEF-tet-off cells (Clontech) were maintained in the same media with the addition of 100 μg/ml G418 and 1 μg/ml doxycycline. XBP-1s inducible cells were obtained by transfecting MEF-tet-off cells with the TREhyg-XBP-1s plasmid and then selecting in the presence of 400 μg/ml hygromycin B. Several clones were tested for doxycycline-dependent XBP-1s expression, and one was selected for further experiments. MEF-dn-XBP cells were generated by transfecting MEF-tet-off cells with the TREhyg-dn-XBP plasmid. […] ATF6α and β knockdown MEF cells were generated by cotransfecting wild type MEF cells with U6-iATF6α and β and cmv-puromycin or transducing cells with retroviruses containing each RNAi vector.
Total RNA was isolated from MEF cells with TRIZOL reagent (Invitrogen, Carlsbad, Calif.). cDNA synthesis, hybridization and laser scanning of the array were carried out at the Gene Array Technology Center (Brigham and Women's Hospital, Boston, Mass.) with MG-U74A GeneChips which had 6,000 functionally characterized sequences and 6,000 ESTs from the UniGene database (Affymetrix, Santa Clara, Calif.) as recommended by Affymetrix. Data analysis was performed using Affymetrix GeneChip 3.1 software under default parameter setting.
To examine whether XBP-1 itself is sufficient to induce these UPR target genes, the tet-off system was used to establish a cell line in which the spliced form of XBP-1, XBP-1s, is placed downstream of a tetracycline dependent promoter. XBP-1s was induced by removing doxycycline in the culture medium for three days. […] To identify genes that were induced by XBP-1s, total RNAs were prepared from MEF-tet-off-XBP-1s cells cultured in the presence or absence of doxycycline and gene array analysis performed (Table 1). […] In addition, ˜23% of the total pool of analyzed UPR target genes were induced by XBP-1s, although the fold induction tended to be lower than upon Tm treatment. These UPR genes included Herp, BiP, Aremt, AW124049 EST and interferon beta. […] The expression of BiP, CHOP, ERdj4 and p58^ipk was confirmed by Northern blot analysis (FIG. 17A).

XBP-1 and ATF6α = test: UPRE (5×ATF6GL3) reporter in MEF cells with dominant negative XBP-1; type: cell-based
Description: (A) The 5×ATF6GL3 reporter plasmid was cotransfected with either pCGNATF6α or XBP-u/s plasmids into MEF cells with or without the dominant negative XBP-1 expression plasmid. 100 ng DNA was used for each transfection except for pCDNA3.1, which was added to give 1 μg of DNA in total. Luciferase assays were performed as described in the legend to FIG. 18.(B) MEF and MEF-dn-XBP cells that stably express dominant negative XBP-1 protein were treated with 10 μg/ml Tm for the indicated time periods. Total RNAs were isolated and subjected to Northern blot analysis. The same blot was hybridized sequentially with BiP, CHOP, ERdj4, p58^ipk and ATF6α probes. Ethidium bromide staining of the gel before blotting is shown at the bottom as loading control.
To make 4×XBPGL3, two complementary oligonucleotides containing the XBP-1 binding site 5^f-CGCG(TGGATGACGTGTACA)4-3′ (SEQ ID NO: 12) and 5′-GATC(TGTACACGTCATCCA)4-3^f (SEQ ID NO: 13) were annealed and ligated to the—40-Luc plasmid (Lee et al. 2000. Biochem J. 350 Pt1:131-138) digested by Mlu I and Bgl II. The UPRE reporter was constructed by inserting an annealed oligonucleotide containing two UPRE motifs (Roy and Lee 1999 Nucleic Acids Res. 27:1437), 5′-cgcgtcaCCAATcggaggcctCCACGaccaCCAATcggaggcctCCACGac-3′, (SEQ ID NO: 14) to the 40-Luc plasmid between the Mlu I and Xho I sites (Lee et al. 2000. Biochem J. 350 Pt1:131-138). UPRE reporter (5×ATF6GL3), pCGNATF6 and pCGNAF6 (1-373) were previously described (Wang et al. 2000. J. Biol. Chem. 275:27013). The pCDNA3.1 ([…]) driven expression vectors for mouse XBP-1s and XBP-1u/s were described elsewhere (Iwakoshi et al. 2003. Nature Immunology 4:321). pCDNA-dn-XBP was constructed by removing the region downstream of the Eco RV site of XBP-1s cDNA in the pCDNA-XBP-1s plasmid. TREhyg-XBP-1s and TREhyg-dn-XBP were constructed by inserting the XBP-1s cDNA and DN-XBP, respectively, into TRE2 hyg (Clontech) between the Pvu II and Sal I sites. […]

Molecule | ATF6α induction (UPR target genes) | BiP induction (UPR target genes) | CHOP induction (UPR target genes) | ERdj4 and p58ipk expression (UPR target genes) | share of analyzed UPR target genes induced (UPR target genes) | transactivation of the UPRE reporter by ATF6α / function of ATF6 (XBP-1 and ATF6α) | transactivation of the UPRE reporter by XBP-1s (XBP-1 and ATF6α) | transactivation of the UPRE reporter by ATF6α / function of ATF6 (XBP-1 and ATF6α; listed as dn-XBP-1)
B1 | also induced by XBP-1s | only marginally induced | not significantly induced | sufficient to induce ERdj4 and p58^ipk expression | ~23% | – | – | –
B2 | – | – | – | – | – | inhibited the transactivation of the UPRE reporter by ATF6α | completely abolished transactivation of the UPRE reporter by XBP-1s | potently inhibited the function of ATF-6 through heterodimerization

From patent US20040170622A1, “Methods and compositions for modulating XBP-1 activity” (President and Fellows of Harvard College, priority 2002, published 2004)
